From article PMC6468305

Target: S. epidermidis Csm3 (SeCsm3) in the Cas10–Csm effector complex (S. epidermidis RP62a)
Test: cryo-EM structure

stoichiometry N: 5
Substance: S. epidermidis Csm3 (SeCsm3) in the Cas10–Csm effector complex (natural protein)
